Test results reported in article PMC10613257.

How the values were obtained:
[1] = molecular target: insulin-like growth factor binding protein 5 (IGFBP5), full length, wild type (UniProt P24593); experiment: FP; conditions: enzyme
[2] = molecular target: insulin-like growth factor binding protein 5 (IGFBP5), full length, wild type (UniProt P24593); experiment: fluorescence polarisation; FAM-labelled FL IGFBP5 at 5 nM; enzyme serially diluted from 10 µM to 0.5 nM; 1X PBS; 384-well plates; catalytically inactive enzymes

insulin-like growth factor binding protein 5 (IGFBP5), full length, wild type, sequence (P24593 21-272): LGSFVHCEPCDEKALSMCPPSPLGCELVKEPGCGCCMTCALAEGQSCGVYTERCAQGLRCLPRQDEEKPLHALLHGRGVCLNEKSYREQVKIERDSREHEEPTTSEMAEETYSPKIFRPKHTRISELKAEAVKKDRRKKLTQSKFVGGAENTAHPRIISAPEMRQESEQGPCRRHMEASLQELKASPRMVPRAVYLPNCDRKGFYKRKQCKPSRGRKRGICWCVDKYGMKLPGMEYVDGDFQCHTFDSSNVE

Substance	Kd [1] [nM]	fold weaker binding than PAPP-A E483A [2] [fold]
PAPP-A2 E500Q (catalytically inactive) (from UniProt Q9BXP8 235-1791)	2640	–
PAPP-A2 E500Q (catalytically inactive) (from UniProt Q9BXP8 235-1791) (enzyme)	–	11
